Consider 2 proteins from PMC8617651, “Cloning, Expression and Characterization of UDP-Glucose Dehydrogenases” (Life, 2021).

Holding throughout (experiment): UDP-GlcA formation by UHPLC, Michaelis-Menten fit, crude extract
What all share (conditions): 0.5 mM NAD+, 50 mM Tris-HCl pH 8.0, 30 °C, 0.5 g/L extract protein, 1-5 mM UDP-Glc

Substrate in data set [1]: O=c1ccn([C@@H]2O[C@H](CO[P@@](=O)(O)O[P@@](=O)(O)O[C@H]3O[C@H](CO)[C@@H](O)[C@H](O)[C@H]3O)[C@@H](O)[C@H]2O)c(=O)[nH]1
It counts as biochemical, Capra hircus. From the text: UDP-GlcA formation by UHPLC, Michaelis-Menten fit, crude extract on ChUGD

Substrate in data set [2]: O=c1ccn([C@@H]2O[C@H](CO[P@@](=O)(O)O[P@@](=O)(O)O[C@H]3O[C@H](CO)[C@@H](O)[C@H](O)[C@H]3O)[C@@H](O)[C@H]2O)c(=O)[nH]1
The format is biochemical, Zymomonas mobilis. From the text: (§1) UDP-GlcA formation by UHPLC, Michaelis-Menten fit, crude extract on ZmUGD

Substrate in data set [3]: O=c1ccn([C@@H]2O[C@H](CO[P@@](=O)(O)O[P@@](=O)(O)O[C@H]3O[C@H](CO)[C@@H](O)[C@H](O)[C@H]3O)[C@@H](O)[C@H]2O)c(=O)[nH]1
The format is biochemical, Zymomonas mobilis.
From the text: as §1
This is another data set of the same source.

Usually Km stands for the concentration of substrate that gives half-maximal velocity.

B1: ChUGD (Capra hircus) (protein)
chain: MFEIKKICCIGAGYVGGPTCSVIAHMCPEIRVTVVDINESRINAWNSPTLPIYEPGLKEVVESCRGKNLFFSTNIDDAIKEADLVFISVNTPTKTYGMGKGRAADLKYIEACARRIVQNSHGYKIVTEKSTVPVRAAESIRRIFDANTKPNLNLQVLSNPEFLAEGTAIKDLKNPDRVLIGGDETPEGQRAVQALCAVYEHWVPREKILTTNTWSSELSKLTANAFLAQRISSINSISALCEATGADVEEVATAIGMDQRIGSKFLKASVGFGGSCFQKDVLNLVYLCEALNLPEVARYWQQVIDMNDYQRRRFASRIIDSLFNTVTDKKIAILGFAFKKDTGDTRESSSIYISKYLMDEGAHLHIYDPKVPREQIVVDLSHPGVSKDDQVARLVTISKDPYEACDGAHAVVICTEWDMFKELDYERIHKKMLKPAFIFDGRRVLDGLHNELQTIGFQIETIGKKVSSKRIPYAPSGEIPKFSLQDMPNKKPRV
notes: codon-optimized synthetic gene, N-terminal 6xHis tag, expressed in S. cerevisiae, crude soluble cell extract
Take B1: the Michaelis constant (Km) in data set [1] is reported as 841 µM.

B2: ZmUGD (Zymomonas mobilis) (protein)
chain: MRITMIGSGYVGLVSGACFSDFGHNVICVDHDQEKIALLQKGVMPIYEPGLADMVANNVKAGRLSFSNDLASSVKDADAVFIAVGTPSRRGDGHADLSYVFAAAKEIAASVSDNTVVVDKSTVPVGTGDEVERIIREIAPDKKIWVASNPEFLREGAAIGDFKRPDRIVIGTENPEAREIMQEIYRPLYLNQSPILFTSRRSAELIKYASNAFLATKITFINEMADLCEAVGGDVQDVARGIGADNRIGSKFLHAGPGYGGSCFPKDTLALLKTAENFATPLRVVESVVTANNIRKRAMARKVLQAIGKDMRGQKIGLLGLTFKPNTDDMRDAPSLALIQGLEDAGAIIHAYDPEGMTQARPLLPNVVFEDEPYKVAEKAEALVIVTEWDAFRALDLKRIAGLLKTPLLLDLRNIYTEEEAKKAGLVYHGIGRPHAG
notes: N-terminal 6xHis tag (pRSFDuet-1), expressed in E. coli BL21 (DE3), crude soluble cell extract (host has a predicted own UGD)
Regarding B2, the Km turned out to be 1234 µM in data set [2] and 2586 µM in data set [3].
